Earlier results as cited in paper PMC11817637.

Legend:
RyR1 = RyR1 (UniProt P21817)
[1] = target: RyR1 (Oryctolagus cuniculus) (UniProt P11716)

UniProt P21817, sequence (P21817 whole entry): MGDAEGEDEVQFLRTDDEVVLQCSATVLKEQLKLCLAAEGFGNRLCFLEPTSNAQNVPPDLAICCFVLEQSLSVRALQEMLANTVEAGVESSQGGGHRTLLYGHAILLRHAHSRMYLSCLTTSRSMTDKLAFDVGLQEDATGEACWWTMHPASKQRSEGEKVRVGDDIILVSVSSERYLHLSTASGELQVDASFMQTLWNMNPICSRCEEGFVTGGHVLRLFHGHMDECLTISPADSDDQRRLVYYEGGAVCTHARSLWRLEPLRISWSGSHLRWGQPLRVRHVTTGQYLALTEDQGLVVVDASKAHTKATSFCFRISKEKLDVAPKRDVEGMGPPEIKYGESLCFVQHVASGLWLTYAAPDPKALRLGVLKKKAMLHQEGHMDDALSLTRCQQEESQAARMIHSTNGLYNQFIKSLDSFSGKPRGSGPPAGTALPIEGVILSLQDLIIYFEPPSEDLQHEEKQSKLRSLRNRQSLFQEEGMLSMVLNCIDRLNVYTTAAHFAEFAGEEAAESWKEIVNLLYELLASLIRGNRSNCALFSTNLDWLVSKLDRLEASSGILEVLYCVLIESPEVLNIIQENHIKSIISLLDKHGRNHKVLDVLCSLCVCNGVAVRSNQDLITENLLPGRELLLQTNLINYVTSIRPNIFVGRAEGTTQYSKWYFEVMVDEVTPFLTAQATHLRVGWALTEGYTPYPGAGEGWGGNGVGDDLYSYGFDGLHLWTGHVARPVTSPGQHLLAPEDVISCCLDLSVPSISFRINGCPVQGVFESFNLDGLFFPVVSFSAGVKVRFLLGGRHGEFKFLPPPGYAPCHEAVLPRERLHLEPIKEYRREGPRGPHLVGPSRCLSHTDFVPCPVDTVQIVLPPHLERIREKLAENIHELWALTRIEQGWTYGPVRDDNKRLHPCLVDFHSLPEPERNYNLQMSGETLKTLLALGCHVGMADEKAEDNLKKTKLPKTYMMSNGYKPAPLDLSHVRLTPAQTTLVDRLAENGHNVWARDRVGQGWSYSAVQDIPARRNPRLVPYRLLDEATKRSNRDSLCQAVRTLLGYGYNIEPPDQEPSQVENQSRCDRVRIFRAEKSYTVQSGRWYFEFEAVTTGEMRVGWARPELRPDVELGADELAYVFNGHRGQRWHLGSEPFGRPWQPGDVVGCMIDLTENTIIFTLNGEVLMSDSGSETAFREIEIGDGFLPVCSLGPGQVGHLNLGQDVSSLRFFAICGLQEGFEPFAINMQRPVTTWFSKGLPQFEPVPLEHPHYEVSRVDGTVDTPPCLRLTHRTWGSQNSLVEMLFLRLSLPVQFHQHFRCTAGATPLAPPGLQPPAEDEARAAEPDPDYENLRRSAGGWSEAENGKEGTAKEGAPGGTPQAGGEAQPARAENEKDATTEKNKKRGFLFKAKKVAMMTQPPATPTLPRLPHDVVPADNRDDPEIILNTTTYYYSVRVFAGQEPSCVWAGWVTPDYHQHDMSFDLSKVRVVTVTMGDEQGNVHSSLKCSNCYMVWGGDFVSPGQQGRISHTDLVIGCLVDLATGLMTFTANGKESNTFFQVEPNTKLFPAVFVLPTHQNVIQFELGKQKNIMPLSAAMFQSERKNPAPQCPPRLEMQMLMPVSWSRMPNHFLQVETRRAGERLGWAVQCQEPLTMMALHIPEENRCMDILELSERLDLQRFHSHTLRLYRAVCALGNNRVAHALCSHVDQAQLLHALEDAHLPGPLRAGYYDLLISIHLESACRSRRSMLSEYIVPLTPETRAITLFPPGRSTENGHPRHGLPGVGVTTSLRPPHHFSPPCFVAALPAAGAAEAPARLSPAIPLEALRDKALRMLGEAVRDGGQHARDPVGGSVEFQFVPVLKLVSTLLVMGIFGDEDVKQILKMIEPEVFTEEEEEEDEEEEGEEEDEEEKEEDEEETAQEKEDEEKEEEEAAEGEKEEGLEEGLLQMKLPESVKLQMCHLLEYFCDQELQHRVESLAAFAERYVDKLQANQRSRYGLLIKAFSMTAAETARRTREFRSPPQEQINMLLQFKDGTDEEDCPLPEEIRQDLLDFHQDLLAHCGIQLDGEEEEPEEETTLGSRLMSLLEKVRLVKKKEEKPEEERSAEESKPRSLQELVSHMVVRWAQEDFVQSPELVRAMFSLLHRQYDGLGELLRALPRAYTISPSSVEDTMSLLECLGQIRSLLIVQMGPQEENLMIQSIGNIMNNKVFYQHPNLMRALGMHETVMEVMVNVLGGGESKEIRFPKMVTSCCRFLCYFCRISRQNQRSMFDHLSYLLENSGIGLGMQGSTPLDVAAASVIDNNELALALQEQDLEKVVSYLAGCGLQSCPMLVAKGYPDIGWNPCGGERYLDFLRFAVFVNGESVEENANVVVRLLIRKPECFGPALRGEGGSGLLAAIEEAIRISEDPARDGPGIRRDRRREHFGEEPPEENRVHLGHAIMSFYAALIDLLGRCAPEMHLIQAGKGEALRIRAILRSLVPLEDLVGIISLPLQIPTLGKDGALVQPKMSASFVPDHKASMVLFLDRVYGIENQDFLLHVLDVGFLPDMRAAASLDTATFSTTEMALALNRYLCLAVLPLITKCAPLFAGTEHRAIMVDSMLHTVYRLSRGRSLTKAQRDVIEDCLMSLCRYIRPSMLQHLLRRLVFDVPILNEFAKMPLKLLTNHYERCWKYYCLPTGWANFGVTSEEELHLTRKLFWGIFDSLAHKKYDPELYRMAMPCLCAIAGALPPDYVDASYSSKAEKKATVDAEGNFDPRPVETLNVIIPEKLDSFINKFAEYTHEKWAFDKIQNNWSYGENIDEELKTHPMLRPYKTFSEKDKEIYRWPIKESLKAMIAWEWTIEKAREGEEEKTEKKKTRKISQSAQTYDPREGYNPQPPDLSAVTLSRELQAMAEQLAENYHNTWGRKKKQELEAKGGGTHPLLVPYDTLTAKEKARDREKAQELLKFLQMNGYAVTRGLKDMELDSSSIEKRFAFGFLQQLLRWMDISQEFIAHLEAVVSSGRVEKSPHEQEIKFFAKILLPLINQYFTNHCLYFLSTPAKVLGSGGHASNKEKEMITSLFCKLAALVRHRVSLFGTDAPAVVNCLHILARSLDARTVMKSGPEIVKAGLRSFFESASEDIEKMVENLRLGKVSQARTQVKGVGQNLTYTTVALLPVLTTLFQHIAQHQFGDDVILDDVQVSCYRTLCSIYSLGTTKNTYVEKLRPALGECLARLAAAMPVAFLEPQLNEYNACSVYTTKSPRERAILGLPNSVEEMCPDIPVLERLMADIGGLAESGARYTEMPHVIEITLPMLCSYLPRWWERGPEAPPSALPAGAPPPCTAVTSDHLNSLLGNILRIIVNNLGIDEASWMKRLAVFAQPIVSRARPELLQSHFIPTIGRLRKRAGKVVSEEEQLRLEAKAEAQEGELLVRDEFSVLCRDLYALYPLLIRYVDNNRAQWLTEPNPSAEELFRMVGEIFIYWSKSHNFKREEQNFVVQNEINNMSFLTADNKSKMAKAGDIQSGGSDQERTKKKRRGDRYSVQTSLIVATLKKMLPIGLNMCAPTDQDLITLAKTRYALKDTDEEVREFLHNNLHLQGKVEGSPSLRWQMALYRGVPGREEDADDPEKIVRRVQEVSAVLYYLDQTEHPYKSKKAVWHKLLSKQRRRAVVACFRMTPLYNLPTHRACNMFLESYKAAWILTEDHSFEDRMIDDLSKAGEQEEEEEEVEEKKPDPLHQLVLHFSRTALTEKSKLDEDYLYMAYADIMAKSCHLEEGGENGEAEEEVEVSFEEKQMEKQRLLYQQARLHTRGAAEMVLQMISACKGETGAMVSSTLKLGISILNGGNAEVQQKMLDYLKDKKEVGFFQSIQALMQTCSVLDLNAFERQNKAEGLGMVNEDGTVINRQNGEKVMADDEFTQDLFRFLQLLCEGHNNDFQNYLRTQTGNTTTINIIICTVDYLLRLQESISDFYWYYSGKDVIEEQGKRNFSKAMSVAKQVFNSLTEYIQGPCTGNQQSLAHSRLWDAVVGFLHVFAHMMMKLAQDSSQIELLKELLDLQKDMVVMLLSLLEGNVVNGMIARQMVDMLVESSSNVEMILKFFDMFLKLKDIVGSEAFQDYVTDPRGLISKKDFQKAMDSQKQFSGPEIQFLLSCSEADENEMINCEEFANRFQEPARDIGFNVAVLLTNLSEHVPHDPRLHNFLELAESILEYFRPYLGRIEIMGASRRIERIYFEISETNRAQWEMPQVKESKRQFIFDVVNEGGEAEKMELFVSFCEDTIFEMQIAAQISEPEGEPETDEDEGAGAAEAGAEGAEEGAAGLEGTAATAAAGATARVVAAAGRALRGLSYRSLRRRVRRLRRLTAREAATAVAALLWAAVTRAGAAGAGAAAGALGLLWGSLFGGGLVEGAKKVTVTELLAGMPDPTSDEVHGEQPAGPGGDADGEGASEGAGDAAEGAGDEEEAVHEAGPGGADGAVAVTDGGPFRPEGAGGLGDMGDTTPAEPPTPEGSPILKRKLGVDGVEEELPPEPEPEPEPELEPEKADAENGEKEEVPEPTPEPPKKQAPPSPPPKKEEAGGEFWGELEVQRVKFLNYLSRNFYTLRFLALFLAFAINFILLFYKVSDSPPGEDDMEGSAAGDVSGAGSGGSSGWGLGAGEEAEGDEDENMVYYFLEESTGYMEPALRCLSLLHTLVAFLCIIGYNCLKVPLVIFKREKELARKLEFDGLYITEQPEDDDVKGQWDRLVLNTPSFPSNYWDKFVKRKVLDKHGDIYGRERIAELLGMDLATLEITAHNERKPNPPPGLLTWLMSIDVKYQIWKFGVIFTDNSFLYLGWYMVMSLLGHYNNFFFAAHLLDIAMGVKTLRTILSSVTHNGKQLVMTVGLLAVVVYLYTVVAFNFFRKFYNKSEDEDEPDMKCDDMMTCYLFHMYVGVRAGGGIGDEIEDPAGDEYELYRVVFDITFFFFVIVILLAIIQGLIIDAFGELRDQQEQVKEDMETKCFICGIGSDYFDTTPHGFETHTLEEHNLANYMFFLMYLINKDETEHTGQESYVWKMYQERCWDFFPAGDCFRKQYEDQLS

| Kd (RyR1) | Kd [1] | Substance |
| --- | --- | --- |
| 100 nM | – | FKBP12 (from UniProt P62942) |
| – | 2.6 nM | FKBP12 (from UniProt P62943) |
